experiment: soluble on expression in E. coli; label from the status in PepcDB or PDB records

Sequence | soluble on expression in E. coli
MSLMLYFITFREARVLLKSRDLALINVDLMKTGKKIRVRVSKDYVEFPDGSRVKKEIIKRIAEDEGNVYFVRDGEVFKAAIAGEHFYKLVPTIPPTIEINGIRMHRTKGTDPLKDTIAKVNTVKPREGEVVLDTCMGLGYTAIESAKRGARVITIEKDPNVIELAKINPWSRELFESPKIKILQGDSFDLIKKFEDESFDVIIHDPPRFSLAGELYSEEFYMEMFRVLKPGGRLFHYVGNPGKRYRGLDLQKGVMERLRRVGFMKVRRVQEALGVFALKPSLEEGHHHHHH | not soluble
MSLKSTDIKIVEAKFSTEEVPFRTPLKFGGRVMDSSVLLNVEVIVETRNGKQGIGIGSMPAGNIWAWPSAVVSPEDSLKAMIEFLKEAVEIANICPEVAHPIDLMYHISAEYHFMAKKLSKRLGLAEEIPELAQLVASSPLDAAIHDGFGRANHINSYNGLSAEYMSHDLTEYLDDQFKGEYLDQYTLRDPKPTLPLYHLVGALDPITEADISERVDDGLPETLGEWIKADGLTHLKIKLSGDNMDWDISRVIAVENEAVKAQGERGQDKWVYSLDFNEKCENVDYVLDFLNKIREQTPAAFDRVQYIEQPTNRDLKANPENKMHEAAKIKPVVIDESLVDYESLLLSRELGYSGVALKACKGQTESLFLGAAAQKFDMFLCVQDLTCCGYSFLHSASLAARIPSIAAIEGNGRQYCPGPNKKWKRSYPGMFNITDGTVKTSEGHHHHHH | not soluble
GMAHPPQIRIPATYLRGGTSKGVFFRLEDLPESCRVPGEARDRLFMRVIGSPDPYAAHIDGMGGATSSTSKCVILSKSSQPGHDVDYLYGQVSIDKPFVDWSGNCGNLSTGAGAFALHAGLVDPARIPEDGICEVRIWQANIGKTIIAHVPVSGGQVQETGDFELDGVTFPAAEIVLEFLDPSDDGEDGGAIFPTGNLVDDLEVPGVGTFKATMINAGIPTVFVNAEEIGYRGTELREEINGDPQQLARFERIRVAGALRMGLIKTPEEAATRQHTPKIAFVAPPRDYRTASGKLVAAGDIDLLVRALSMGKLHHAMMGTAAVAIGTAAAIPGTLVNLAAGGGERSAVRFGHPSGTLRVGAEASQANGEWTVTKAIMSRSARILMEGWVRVPGDAF | soluble
MRKYEQKQLRNHDILTQHYEEVYRQLPEFKSLDDSISILSVQYGKRLLNGDQKAISSLKEELAILRASKQELLRSSGFPADYLEPVYDCPNCKDTGYIGNQKCHCFKKAIIDLLYEQSNLKEILKKENFSNFALDYYSTNFIDPKTGRSSRQVIEDALRICRNFVTSFGTDFQNLFLYGDVGVGKTFLSNCIAKELMDKEYSVLYFSASKFFSSLAKHAFDKQDVDAQNMFELIYNCDCLIIDDLGTEYTNNFIASQFFTCINERLLNSRSTIISTNLSLDTLADLYTERSFSRITSNYIMLKLIGDDIRIKKKLKNREEN | not soluble
KVWDRAVDFLAANESRVRTETRRIGGADFLVWRWIQPSASCDKILVIPSKVWQGQAFHLDRRNSPPNSLTPCLKIRNMFDPVMEIGDQWHLAIQEAILEKCSDNDGIVHIAVDKNSREGCVYVKCLSPEYAGKAFKALHGSWFDGKLVTVKYLRLDRYHHRFPQALTSNTPLKPSNKHMNSMSHLRLRTGLTNSQGSS | soluble
MSETQNSTSQKAMDEDNKAASQTMPNTQDKNYEDELTQVALALVEDVINYAVKIVEEERNPLKNIKWMTHGEFTVEKGLKQIDEYFSKCVSKKCWAHGVEFVERKDLIHSFLYIYYVHWSISTADLPVARISAGTYFTMKVSKTKPPDAPIVVSYVGDHQALVHRPGMVRFRENWQKNLTDAKYSFMESFPFLFNRVLEHHHHHH | soluble
MKYVLDTSAIISRNINLLDGDLLFPSSVIGEIRKGKLKYMLDALFPMIRIVDPDQYYVRSVEDAAHKTGDLMNLSGTDIEVIAVAMQYGATIVTDDYSIQNVASALKIAFMNANIKSISKQISWVYRCTGCKKIFHEPVKVCDICGHNVKRHYDKKRSAVKKILEHHHHHH | not soluble
MGHHHHHHSHMKTRQAFYLHTTKLTRIARRLCREILRPWHAARHPYLPINSAAIKAECTARLPEASQSPLVLKQAVRKPLEAVLRYLETHPRPPKPDPVKSVSSVLSSLTPAKVAPVINNGSPTILGKRSYEQHNGVDGNMKKRLLMPSRGTYLGLANHGQTRHMGPSRNLLLNGKSYPTKVRLIRGGSLPPVKRRRMNWIDAPDDVFYMATEETRKIRKLLSSSETKRAARRPYKPIALRQSQALPPRPPPPAPVNDEPIVIED | not soluble
